Earlier results, collected in PMC12026706.
pKd: −log10 of the molar value.

Legend:
Test in all cases: BIAcore SPR
TREM-1 (Homo sapiens) = TREM-1 (Homo sapiens) (UniProt Q9NP99)
TLR4 (Homo sapiens) = TLR4 (Homo sapiens) (UniProt O00206)
[1] = biological target: TLR4/MD2 complex (Homo sapiens) (UniProt O00206)
MD2 (Homo sapiens) = MD2 (Homo sapiens) (UniProt Q9Y6Y9)
IL-6R (Homo sapiens) = IL-6R (Homo sapiens) (UniProt P08887)
IL-6R (Homo sapiens), sequence (P08887 20-355): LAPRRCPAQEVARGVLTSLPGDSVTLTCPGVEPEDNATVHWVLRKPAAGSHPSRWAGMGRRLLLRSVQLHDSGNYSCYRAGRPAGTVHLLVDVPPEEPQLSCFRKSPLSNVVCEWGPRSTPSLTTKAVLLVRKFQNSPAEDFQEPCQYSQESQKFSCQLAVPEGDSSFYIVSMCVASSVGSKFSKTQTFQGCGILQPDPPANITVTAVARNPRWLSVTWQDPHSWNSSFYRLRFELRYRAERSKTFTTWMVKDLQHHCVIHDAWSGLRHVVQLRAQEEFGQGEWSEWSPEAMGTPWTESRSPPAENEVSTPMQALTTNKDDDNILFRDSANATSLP

eCIRP, sequence (Q14011 whole entry): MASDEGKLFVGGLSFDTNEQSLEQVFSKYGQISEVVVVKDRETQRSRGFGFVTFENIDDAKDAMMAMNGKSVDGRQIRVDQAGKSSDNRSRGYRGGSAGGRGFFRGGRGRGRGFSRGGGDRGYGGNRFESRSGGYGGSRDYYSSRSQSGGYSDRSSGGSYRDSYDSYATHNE
TLR4 (Homo sapiens), sequence (O00206 24-839): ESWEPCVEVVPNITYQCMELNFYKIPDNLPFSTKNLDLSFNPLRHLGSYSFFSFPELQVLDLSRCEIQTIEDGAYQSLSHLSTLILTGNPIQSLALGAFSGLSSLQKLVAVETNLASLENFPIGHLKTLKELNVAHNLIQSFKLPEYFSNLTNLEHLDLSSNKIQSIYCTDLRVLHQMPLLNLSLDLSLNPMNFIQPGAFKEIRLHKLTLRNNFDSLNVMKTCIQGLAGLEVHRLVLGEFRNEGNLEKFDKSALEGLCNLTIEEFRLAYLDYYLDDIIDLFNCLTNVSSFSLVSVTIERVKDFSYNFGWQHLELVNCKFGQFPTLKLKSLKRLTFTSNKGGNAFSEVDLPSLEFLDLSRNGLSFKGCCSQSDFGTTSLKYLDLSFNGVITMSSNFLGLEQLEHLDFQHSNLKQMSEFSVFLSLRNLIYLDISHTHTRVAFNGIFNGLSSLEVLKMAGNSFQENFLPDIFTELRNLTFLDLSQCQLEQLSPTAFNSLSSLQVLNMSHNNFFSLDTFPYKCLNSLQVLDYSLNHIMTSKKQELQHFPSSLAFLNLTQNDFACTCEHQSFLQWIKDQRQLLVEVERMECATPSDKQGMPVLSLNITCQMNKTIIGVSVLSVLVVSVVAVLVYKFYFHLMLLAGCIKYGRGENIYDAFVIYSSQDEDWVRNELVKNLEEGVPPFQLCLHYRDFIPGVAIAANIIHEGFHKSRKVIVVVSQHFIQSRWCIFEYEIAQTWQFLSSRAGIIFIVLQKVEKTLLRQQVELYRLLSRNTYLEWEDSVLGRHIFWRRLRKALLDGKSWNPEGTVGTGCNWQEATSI
TLR4/MD2 complex (Homo sapiens), sequence (O00206 24-839, chain 1 of 2): as the sequence (O00206 24-839) above
TLR4/MD2 complex (Homo sapiens), sequence (Q9Y6Y9 19-160, chain 2 of 2, further chain): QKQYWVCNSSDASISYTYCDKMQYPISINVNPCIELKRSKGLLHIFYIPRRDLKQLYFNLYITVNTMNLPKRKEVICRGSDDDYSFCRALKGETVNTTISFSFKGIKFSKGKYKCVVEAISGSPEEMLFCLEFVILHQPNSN
MD2 (Homo sapiens), sequence (Q9Y6Y9 19-160): as the sequence (Q9Y6Y9 19-160, chain 2 of 2, further chain) above
TREM-1 (Homo sapiens), sequence (Q9NP99 21-234): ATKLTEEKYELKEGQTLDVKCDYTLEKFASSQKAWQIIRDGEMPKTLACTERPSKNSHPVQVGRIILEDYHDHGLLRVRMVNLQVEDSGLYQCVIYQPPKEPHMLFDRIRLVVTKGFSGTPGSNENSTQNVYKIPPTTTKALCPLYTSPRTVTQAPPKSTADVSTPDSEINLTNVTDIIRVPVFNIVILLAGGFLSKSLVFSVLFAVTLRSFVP

Substance: eCIRP (from UniProt Q14011)
- pKd (TREM-1 (Homo sapiens)): 6.93
- pKd (TLR4 (Homo sapiens)): 6.21
- pKd [1]: 6.62
- pKd (MD2 (Homo sapiens)): 6.52
- pKd (IL-6R (Homo sapiens)): 7.01
